# Results taken from the DeepSol protein solubility set.
# Assay: soluble on expression in E. coli; label from the status in PepcDB or PDB records
row,Sequence,soluble on expression in E. coli
1,MGSDKIHHHHHHMGKVTIEPLSRLEGHGKVSITLDDAGKPTDVKLHITALRGFEQFVVGRPAEEVPRIVPRICGICQTPHHLASVKAVDAAWGAEVPSAAEKLRELMHLGNMMHSHALHFYYLAAPDFVLGPDSDPAARNIIGVIGAAPEVAKKAIAMRRVGQSIVETIGGRAIHPVTGVPGGVSKALSEEKRDELLNEIDEMIAYGQDGIALIKSLNEKYMDLAKTLGVIDTWYLGMVKDGKHNFYGDTLRFMSPDGKQTTDFKPSEYLDNIGEHVVGHNYVKYPYNKKVGYPDGLYRVGPLAMLNVCDSMPTPLAEEARKDFADTFGKPANQSLAYNHARLIELLASCERVKELLEDSEITSTDIKAEVEPKAGNGVGAIYAPRGTLFHNYETDDKGIVVKANMIVASTHNVPTMEKAIQQAAEVVFK,not soluble
2,MGSDKIHHHHHHQSTGQVTLGVLTDMSSVYADSAGKGSVAAVQLAIEDVGGKALGQPVKLVSADYQMKTDVALSIAREWFDRDGVDAIFDVVNSGTALAINNLVKDKKKLAFITAAAADQIGGTECNGYGIGFLYNFTSIVKTVVQAQLAKGYKTWFLMLPDAAYGDLMNAAIRRELTAGGGQIVGSVRFPFETQDFSSYLLQAKASGAQLIVSTSGGAANINIMKQAREFGLPSKTQKVGGMIDILTDVKSAGLRVMQGQEYATSFYWNMDDRTRAFAKRFYAKMGKMPTNNQAGGYSAALQYLKAVNAIGSKDPQKVFAYLKTIKFDDAVTRHGTLRPGGRLVRDMYLVRAKKPEDQKGDWDYYDVVATIGPEQAFGPLSESRCAMDK,not soluble
3,MTYVDGFVLPVPEGKIDAYRQMAESAGKIWMEHGALQYKECVLEDAKPEMPEDAPETCKITPFGKLAGTKDGETVIFAFIVYKSREHRDEVNKKVMADPRMQEACDENNMPFDPSRMAYGGFKALVDL,not soluble
4,MGSDKIHHHHHHNEDDIFDESSAQRAIASVNECQEILKGAANGWLLEYYTGEDGEYGGFNVLARFDGNNVIMAADFATDNYEIGEESTSLYKVESYQGTELSFDSYNELIHEFCEPSGYNSPGYAGDYEFVFRSVSKEKIVLTGKKHGVTLIMTPLPAETNWQEKLTNIANVVSQASYVTYKLIVNGQEITKMGQEEHAFSVTKVDETGETTVSLYPFIYTEEGIKMYEPLVVNGVEINNFKWDNENLTYICTDTGVDAKIEFYCPEGYLNYLGNYILQLANGQRIQLELKQKMIGKSFAMNFALSGTPIEFVYNYNMTTDCIDVPSQTVGVYQGYNVLLYPGIPGGNFYADDSAVFQGRIANTDPLTIKFTYVNNPICTLMLLVYQKTDGWYGFSTMFQDVTLIKVD,not soluble
5,MGSDKIHHHHHHMVEIINPFDGGGYSLAEMTQAINILPNLYTRLGQMGLFRFEGVTQRSVIIEQAEGVLNLLPTVPLGGPATVANRDARSMRSFTVPWIPHDDSITPQDVQGVRGFGVADAADPLATVMERKLTRMRTKHAQTREFMEINALRGIVRDGSGSTLYDYFAEFGLVRQQVDFALGTAATNVQAKIREVLRLVEVELKGETMTSVTALVSPAFFDKLISHPKVESAYQYFSSTGAQPLREDVRRRFPFAGMVFEEYNATVTLATGSNETLVPAGEGIAFPLGTTDTFVTYGAPANLIETVNTMGLPMYARQLARQDGSAIDVKTEASILPVNKRPRLAVRIFSGN,not soluble
6,MQHSLRSDGAGFYQLACCEYSLSMRKIALSGGFWGGVCRMAMKSIFFMFHQGNRRLTLTAVQGILLRFSLF,not soluble
7,MLEPCTKRSELLYRMHLLSKEISHVFEQQTNMSFTKVEILFHIKQTPGQSQNRLKEKLYIDSASITRHLKRMEEQGLIVRKKQDENKRYTYLFLTPAGEAELTSLLTEKEKFQTGALEGFSEDEVSALLKSVTKMMNNVEKLEEKLK,not soluble
8,MTFELKYTDRSYLPDQFKAISGNPPVEWKVTNNLVEYPEALRYMQERVENILAQNAHEQVWLLEHPSLYTAGTSAKKKDLLTPHLFPVYEAGRGGEFTYHGPGQRIAYIMLDLKRRRQDIRAFISALEEWIIQMLAKFNIKGERREDRVGVWVQRHSCQSTQNSLYSEDKIAAIGIRVRKWVSFHGVSINVDPNLAHYSGIVPCGITNHGVTSFLDLGLPTKMHDIDIALKQSFEQIFGPIIDIS,not soluble
9,MDRTTGKPLVGIEHLRQSIIDILSTRIGTRVMRRDYGSRIAELIDAPVNSSFSIALYAAVAEALDKWEPRFKLKKIDFKMLGTGQVSLSFEGMYLPSGKPITMEGLLIQ,not soluble
10,MGSDKIHHHHHHMRRLFAIGEALIDFIPNVTHSKLKDVEQFSRQVGGAPCNVAATVSKLGGKSEMITQLGNDAFGDIIVETIEQLGVGTQYIKRTNKANTALAFVSLQDDGQRDFSFYRKPSADMLYQPENIDDIQVFQDDILHFCSVDLIESDMKYAHEKMIEKFESVDGTIVFDPNVRLPLWEDKLECQRTINAFIPKAHIVKISDEELLFITGKRNEDEAIQSLFRGRVNVVIYTQGAQGATIYTKDDYRIHHEGYQVQAIDTTGAGDAFIGAIIYCILESRYSECKDLFKEKGKDILAFSNRVAALTTTKHGAIESLPTKEDIKDYN,not soluble
11,MAFELPKLPYAFDALEPHFDKETMEIHHDRHHNTYVTKLNAAVEGTDLESKSIEEIVANLDSVPANIQTAVRNNGGGHLNHSLFWELLSPNSEEKGTVVEKIKEQWGSLEEFKKEFADKAAARFGSGWAWLVVNNGQLEIVTTPNQDNPLTEGKTPILGLDVWEHAYYLKYQNKRPDYIGAFWNVVNWEKVDELYNATK,not soluble
12,MGSDKIHHHHHHMFVIWSHRTGFIMSHQLTFADSEFSSKRRQTRKEIFLSRMEQILPWQNMVEVIEPFYPKAGNGRRPYPLETMLRIHCMQHWYNLSDGAMEDALYEIASMRLFARLSLDSALPDRTTIMNFRHLLEQHQLARQLFKTINRWLAEAGVMMTQGTLVDATIIEAPSSTKNKEQQRDPEMHQTKKGNQWHFGMKAHIGVDAKSGLTHSLVTTAANEHDLNQLGNLLHGEEQFVSADAGYQGAPQREELAEVDVDWLIAERPGKVRTLKQHPRKNKTAINIEYMKASIRARVEHPFRIIKRQFGFVKARYKGLLKNDNQLAMLFTLANLFRADQMIRQWERSH,not soluble
13,ESTTVKMYEALPTGPGKEVGTVVISEAPGGLHFKVNMEKLTPGYHGFHVHENPSCAPGEKDGKIVPALAAGGHYDPGNTHHHLGPEGDGHMGDLPRLSANADGKVSETVVAPHLKKLAEIKQRSLMVHVGGDNYSDKPEPLGGGGARFACGVIE,soluble
14,MGSDKIHHHHHHMIINNNIKELSIAHLQLIVCLIKHGNSCVVSDELGISQSSISYHLRRLRVIFADEMFIRTGKGLKPTERCIQIGHFAQDLINRVEEELIHANDFVPKQMKRELTLIAADTACGWFSTLFSDMQKTLPRVTLCARPWNLKSMEDLDSGAVDFGIHIIENSKKGIYDMDIAPCYRLCVVRDGHPLISKGEVTLKDLEQYPVLINDLGGWNNDGNSLMQRVLEKHGLKLNIAGRLGYINSIFTALHTSNAITYTSAASIPQSIPGLTLLRGPKEVNEVDCFYRLYISRMRYGSQETNYLIDFIYDSFKHFLTQQYNRIDIAAVINK,not soluble
15,MRTLFYSQLMYEAAKRQPHPHRCADGRTIADLSAQDLKKLNIAQLFFVAGRESEASYGDAYHRYHLYGAKQFEEYARKHLTHLFSEKEIVLYSRCIEDRIGDRFDETAEGYLIHLSHMIDLMRCKSPVEVFIGHSRGVSGIVPTLIQLFGREDGLDIMHYARSLFAATGEAVPYISSSEWPHLGIESDRVERALKIVGPLEVEGQEADAKKTAQAGFSVDGCYGALVKVDTPDWYHQVKEKEDYDVDEVIALPPQITIREEPPKANESFLLSLLRHVFWCCPSNQKRDDENTDVLEKKAQL,not soluble
16,MAKNDFKFISYKDKVKKELDATAERGMTKVLMIIKAAAKSGAPVETGQLRDRIDYQLKAVGGKVVGIVGSPEQYAIYVEFGTGEFAENGSGRKGGWFFEGPDGEWHFTRGQKPQKFLRNAFRQNKEKVIEILGKEYGATFKGG,not soluble
17,MTYEIVIAGFGGQGVLSMGKILAYSGLMEDKEVSWMPSYGPEQRGGTSNVTVIVSDEQVSSPVLNEYDIVIVLNQPSLDKFEARVKKGGILVYDPDSIVLKNKRDDIQIYEVDATQESLRMGNQKAFNMIVLGGVLKVAPMVKIESVIKGLKKTLPERHHKLIPMNEQAIQRGMEIIKQIH,not soluble
18,MGSDKIHHHHHHMTKRILEVNVDDNGYSGVYSLIKRVIENKPADYQIDLACLEPFESQQNIDYLNKLGTQVYYIGYPGNKIKKQLKYYEKLQKVVKDGNYDYVHIHGDVANKLYVTALAARKADSGVKIILQSHASDVDGSHRQLKRFIHKSLRGKLVKLADCYVSVSDLASNWMFPSIPKSQVIKIMNGVDLAAFRYDPIIRKRIRKELGLSRKHVLGHIGRFAYQKNHQYLIQVFAKVYAQDPQARLLLVGKGDLQDECKHQVHDLGLDKQVIFYGLSSNTSELFQAMDVFLLPSHFEGLPIVGVEAQAAGLPVIFSDQITSEAKMTNNVSFLPIDETSLSAWQSQVIKDLELGHRDDYDLLSRQKLDITDTVAAFMKLYNS,not soluble
19,MGSDKIHHHHHHMVINIEQAIAWMASRKGKVTYSMDYRNGPSSYDCSSSVYFALRSAGASDNGWAVNTEYEHDWLIKNGYVLIAENTNWNAQRGDIFIWGKRGASAGAFGHTGMFVDPDNIIHCNYGYNSITVNNHDEIWGYNGQPYVYAYRYARKQSNAKVDNQSVVSKFEKELDVNTPLSNSNMPYYEATISEDYYVESKPDVNSTDKELLVAGTRVRVYEKVKGWARIGAPQSNQWVEDAYLIDATDM,not soluble
20,SPEFMVKAKSWTLKKHFQGKPTQSDFELKTVELPPLKNGEVLLEALFLSVDPYMRIASKRLKEGAVMMGQQVARVVESKNSAFPAGSIVLAQSGWTTHFISDGKGLEKLLTEWPDKLPLSLALGTIGMPGLTAYFGLLEVCGVKGGETVLVSAAAGAVGSVVGQIAKLKGCKVVGAAGSDEKIAYLKQIGFDAAFNYKTVNSLEEALKKASPDGYDCYFDNVGGEFLNTVLSQMKDFGKIAICGAISVYNRMDQLPPGPSPESIIYKQLRIEGFIVYRWQGDVREKALRDLMKWVLEGKIQYHEHVTKGFENMPAAFIEMLNGANLGKAVVTA,soluble
21,SDYFRSCWGPRSPAGHRVRGSDVAGRQDGLLWYKDAGQLVTGEFSMAVVQANNLLEDQSQVESGALSMAEPGPQGTFIGVYDGHGGPETARFINDHMFHHLRRFATEHKCMSTDVIRKAFQATEEGFLSLVSKQWSLKPQIAAVGSCCLVGVICSGTLYVANLGDSRAVLGRFVKSTGEVVATQLSSEHNACYEEVRQELQASHPDDPQIVVLKHNVWRVKGLIQISRSIGDVYLKRPEYNREPLHSKFRLRETFKRPILSSEPAIAVHQIQPNDHFVIFASDGLWEHLSNQEAVDLVQNNPRNGIARRLVKVAMQEAAKKREMRYSDLKKIDRGVRRHFHDDITVIVVFLDSNAISKANWSRGPSVSLRGGGVTLPANSLAPFSTPTVLSSTY,soluble
22,GMDKLVKYQELVKKLLTNYASDDVSDQDVEVQLILDTERNHYQWMNVGWQGLNRIYRCVIHFDIKDGKIWLQQNLTDRNPAEELVMMGVPREDIVLGLQAPYKRQYTDYGVA,soluble
